{"source": "paper PMC10440475", "about": "(Heliyon, 2023)", "proteins": {"B1": {"name": "eGFP-fused Shaker potassium channel protein (natural protein)", "chain": "MAAVAGLYGLGEDRQHRKKQQQQQQHQKEQLEQKEEQKKIAERKLQLREQQLQRNSLDGYGSLPKLSSQDEEGGAGHGFGGGPQHFEPIPHDHDFCERVVINVSGLRFETQLRTLNQFPDTLLGDPARRLRYFDPLRNEYFFDRSRPSFDAILYYYQSGGRLRRPVNVPLDVFSEEIKFYELGDQAINKFREDEGFIKEEERPLPDNEKQRKVWLLFEYPESSQAARVVAIISVFVILLSIVIFCLETLPEFKHYKVFNTTTNGTKIEEDEVPDITDPFFLIETLCIIWFTFELTVRFLACPNKLNFCRDVMNVIDIIAIIPYFITLATVVAEEEDTLNLPKAPVSPQDKSSNQAMSLAILRVIRLVRVFRIFKLSRHSKGLQILGRTLKASMRELGLLIFFLFIGVVLFSSAVYFAEAGSENSFFKSIPDAFWWAVVTMTTVGYGDMTPVGVWGKIVGSLCAIAGVLTIALPVPVIVSNFNYFYHRETDQEEMQSQNFNHVTSCPYLPGTLGQHMKKSSLSESSSDMMDLDDGVESTPGLTETHPGRSAVAPFLGAQQQQQQPVASSLSMSIDKQLQHPLQQLTQTQLYQQQQQQQQQQQNGFKQQQQQTQQQLQQQQSHTINASAAAATSGSGSSGLTMRHNNALAVSIETDV"}}, "target": "the molecule itself", "test": "PFO-PAGE", "note": "Where “and” joins values, the source holds several entries; their conditions need not be identical. Equal entries are not always repeated.", "data": [{"protein": "B1", "values": [{"measurement": "stoichiometry N", "result": "2 and 4"}]}]}
